The assay has as its target T1, FLAG-tagged Cereblon (CRBN) (human, UniProt Q96SW2-2 1-441).
T1 construct: also called FLAG-CRBN; Wnt-modulated CRBN; source: HEK293T, transfected (pcDNA3.1(+)), cells treated with PBS or Wnt3a, immunopurified from lysate on beads
As to the kind of experiment: pull-down; FLAG-CRBN immunopurified from PBS- or Wnt3a-treated (4 h) HEK293T cells, held on BSA-blocked beads; GST-CK1α preincubated with DMSO or pyrvinium at 4 °C for 10 min, then incubated with the beads in binding buffer at 4 °C for 1 h; one 5-min wash; elution in Laemmli buffer, immunoblot. The conditions noted are these: both partners purified.

T1 sequence (Q96SW2 other isoform, or with tags, fused parts or gaps): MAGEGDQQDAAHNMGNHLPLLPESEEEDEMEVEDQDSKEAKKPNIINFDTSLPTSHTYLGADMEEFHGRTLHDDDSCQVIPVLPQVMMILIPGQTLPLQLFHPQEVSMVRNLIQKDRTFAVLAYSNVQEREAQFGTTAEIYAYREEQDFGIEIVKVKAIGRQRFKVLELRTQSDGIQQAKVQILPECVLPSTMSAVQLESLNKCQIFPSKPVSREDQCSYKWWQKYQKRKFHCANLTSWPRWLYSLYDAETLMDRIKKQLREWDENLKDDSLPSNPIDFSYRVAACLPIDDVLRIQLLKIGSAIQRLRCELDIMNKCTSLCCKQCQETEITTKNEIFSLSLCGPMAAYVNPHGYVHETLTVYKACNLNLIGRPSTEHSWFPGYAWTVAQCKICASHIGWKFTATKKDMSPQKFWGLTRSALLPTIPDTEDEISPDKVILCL

B1: Recombinant human glutathione-S-transferase (GST)-CK1α protein (natural protein, UniProt P48729-1 1-337, looked up)
chain: MASSSGSKAEFIVGGKYKLVRKIGSGSFGDIYLAINITNGEEVAVKLESQKARHPQLLYESKLYKILQGGVGIPHIRWYGQEKDYNVLVMDLLGPSLEDLFNFCSRRFTMKTVLMLADQMISRIEYVHTKNFIHRDIKPDNFLMGIGRHCNKLFLIDFGLAKKYRDNRTRQHIPYREDKNLTGTARYASINAHLGIEQSRRDDMESLGYVLMYFNRTSLPWQGLKAATKKQKYEKISEKKMSTPVEVLCKGFPAEFAMYLNYCRGLRFEEAPDYMYLRQLFRILFRTLNHQYDYTFDWTMLKQKAAQQAASSSGQGQQAQTPTGKQTDKTKSNMKGF
notes: Preincubated with DMSO or pyrvinium before it was added to the FLAG-CRBN beads; also called GST-tagged CK1α; recombinant CK1α; source: Sf9 insect cells, purified (GenScript)
For the molecule B1, the binding result is reported as “binds”.

The record behind these values is PMC9352546, “The Casein kinase 1α agonist pyrvinium attenuates Wnt-mediated CK1α degradation via interaction with the E3 ubiquitin ligase component Cereblon” (The Journal of Biological Chemistry, 2022).
